Measurements from publication PMC3519385 (Structure (London, England : 1993), 2012).
Several values for one entry are separate records, joined by “and”; a condition that tells them apart may be missing. Identical values can stand only once. Like-named read-outs stand apart in the source and are kept apart here. Blank lines part the entries; values can stand above or below the binder they belong to.

Tests used:
[1] = biological target: the molecule itself
Gemin2 = biological target: T1, Gemin2 (UniProt O14893 1-280); assay: co-purification
T1 sequence (looked up): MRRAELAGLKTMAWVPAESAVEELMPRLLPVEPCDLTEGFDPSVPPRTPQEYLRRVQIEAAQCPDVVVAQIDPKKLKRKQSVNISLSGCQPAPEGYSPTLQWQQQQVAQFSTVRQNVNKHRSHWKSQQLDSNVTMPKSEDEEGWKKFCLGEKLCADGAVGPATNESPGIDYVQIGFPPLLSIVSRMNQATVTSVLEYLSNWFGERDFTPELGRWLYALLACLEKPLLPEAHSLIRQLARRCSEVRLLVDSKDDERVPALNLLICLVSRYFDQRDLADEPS

SEC-MALS [2] = biological target: the molecule itself; assay: SEC-MALS
SEC-MALS [3] = biological target: the molecule itself; assay: SEC-MALS; remark: listed apart in the source

B1: MBP-SMN^229–294 (domain or fragment, human, UniProt Q16637 229-294, looked up)
chain: LSCWLPPFPSGPPIIPPPPPICPDSLDDADALGSMLISWYMSGYHTGYYMGFRQNQKEGRCSHSLN
stoichiometry N [1]: 4 and 8

stoichiometry N (Gemin2): 1
B2: SMN Δexon5 (SMNΔ5) (natural protein, human, UniProt Q16637-2 1-262, looked up)
chain: MAMSSGGSGGGVPEQEDSVLFRRGTGQSDDSDIWDDTALIKAYDKAVASFKHALKNGDICETSGKPKTTPKRKPAKKNKSQKKNTAASLQQWKVGDKCSAIWSEDGCIYPATIASIDFKRETCVVVYTGYGNREEQNLSDLLSPICEVANNIEQNAQENENESQVSTDESENSRSPGNKSDNIKPKSAPWNSFLPPPPPMPGPRLGPGKIIPPPPPICPDSLDDADALGSMLISWYMSGYHTGYYMGFRQNQKEGRCSHSLN

Binder: DSLDDADALASMLISWYMSGYHTGYYMGFRQNQKEGRCSHSLN (domain or fragment, human, UniProt Q16637 252-294, looked up) [MBP-YG^252–294 G261A]
stoichiometry N (SEC-MALS [2]): ≥ 4

Binder: DSLDDADALGGMLISWYMSGYHTGYYMGFRQNQKEGRCSHSLN (domain or fragment, human, UniProt Q16637 252-294, looked up) [MBP-YG^252–294 S262G]
stoichiometry N (SEC-MALS [3]): 4

Binder: DSLDDADALGSMLISWYMSGYHTGYYMGFRQAQKEGRCSHSLN (domain or fragment, human, UniProt Q16637 252-294, looked up) [MBP-YG^252–294 N283A]
stoichiometry N (SEC-MALS [2]): ≥ 4

Binder: DSLDDADALGIMLISWYMSGYHTGYYMGFRQNQKEGRCSHSLN (domain or fragment, human, UniProt Q16637 252-294, looked up) [MBP-YG^252–294 S262I]
stoichiometry N (SEC-MALS [3]): ≥ 4

Binder: DSLDDADALGSMLISWYMSGYHTGYYMAFRQNQKEGRCSHSLN (domain or fragment, human, UniProt Q16637 252-294, looked up) [MBP-YG^252–294 G279A]
stoichiometry N (SEC-MALS [2]): ≥ 4

Binder: DSLDDADALGSMLISWYMAGYHTGYYMGFRQNQKEGRCSHSLN (domain or fragment, human, UniProt Q16637 252-294, looked up) [MBP-YG^252–294 S270A]
stoichiometry N (SEC-MALS [2]): ≥ 4

Binder: DSLDDADALGSMLISWYMSGYHIGYYMGFRQNQKEGRCSHSLN (domain or fragment, human, UniProt Q16637 252-294, looked up) [MBP-YG^252–294 T274I]
stoichiometry N (SEC-MALS [3]): 4

Binder: DSLDDADALGSMLISWYMSGYHTGYYMCFRQNQKEGRCSHSLN (domain or fragment, human, UniProt Q16637 252-294, looked up) [MBP-YG^252–294 G279C]
stoichiometry N (SEC-MALS [3]): ≥ 4

Binder: DSLDDADALGSMLISWYMSGYHTGYYMGFRQNQKEGRCSHSLN (domain or fragment, human, UniProt Q16637 252-294, looked up) [MBP-YG^252–294]
stoichiometry N (SEC-MALS [3]): 4

Binder: DSLDDADALGSMLISWYMSGYRTGYYMGFRQNQKEGRCSHSLN (domain or fragment, human, UniProt Q16637 252-294, looked up) [MBP-YG^252–294 H273R]
stoichiometry N (SEC-MALS [3]): 4

Binder: MLISWYMSGYHTGYYMGFRQNQKEGRCSHSLN (domain or fragment, human, UniProt Q16637 263-294, looked up) [MBP-YG^263–294]
stoichiometry N [1]: 2
